Publication doi:10.1101/2023.09.28.559889 (bioRxiv, 2023)

B1: NatT toxin (PA1030), His-tagged, co-expressed with NatR in E. coli (enzyme)
chain: SEIWRQCKGERHIRPLQGRLVRLVESQEQVATLQLVDTLEEQALLEELLESSKPPVPADAEPLHYLLKTPFRYPPLRWGSRFGRRHEPSLFYAALKLETAMAESAYYRCVLWSGMVVPPPSGRILSEHASFEAGWKVERGIRLQAPPFSDHEAALTDIADYRAPQELGSAMRSAGVQAFEYRSARCPERGCNVALFTPAAFTEKRPRNLTPWLCETTAGYVAFKPAHVPGSPKIFSWELFLVDGKLPHPA

Key:
[1] = molecular target: NatR antitoxin (PA1029), co-expressed with His-tagged NatT in E. coli (P. aeruginosa); assay: crystal structure
[2] = molecular target: NatT toxin (PA1030), His-tagged, co-expressed with NatR in E. coli (P. aeruginosa) (UniProt Q9I4U4); assay: mass photometry
crystal structure = molecular target: the molecule itself; assay: crystal structure

Row | Molecule | stoichiometry N [1] | stoichiometry N [2] | stoichiometry N (crystal structure)
1 | NatR antitoxin (PA1029), co-expressed with His-tagged NatT in E. coli (natural protein) | 2 | 2 | –
2 | B1 | – | – | 2
